Reference: ChEMBL document CHEMBL2074000, “Transport of ethinylestradiol glucuronide and ethinylestradiol sulfate by the multidrug resistance proteins MRP1, MRP2, and MRP3” (J Pharmacol Exp Ther, 2004)

B1: Multidrug resistance associated protein (Homo sapiens), Q96QA9 (protein)
chain: MDALCGSGELGSKFWDSNLSVHTENPDLTPCFQNSLLAWVPCIYLWVALPCYLLYLRHHCRGYIILSHLSKLKMVLGVLLWCVSWADLFYSFHGLVHGRAPAPVFFVTPLVVGVTMLLATLLIQYERLQGVQSSGVLIIFWFLCVVCAIVPFRSKILLAKAEGEISDPFRFTTFYIHFALVLSALILACFREKPPFFSAKNVDPNPYPETSAGFLSRLFFWWFTKMAIYGYRHPLEEKDLWSLKEEDRSQMVVQQLLEAWRKQEKQTARHKASAAPGKNASGEDEVLLGARPRPRKPSFLKALLATFGSSFLISACFKLIQDLLSFINPQLLSILIRFISNPMAPSWWGFLVAGLMFLCSMMQSLILQHYYHYIFVTGVKFRTGIMGVIYRKALVITNSVKRASTVGEIVNLMSVDAQRFMDLAPFLNLLWSAPLQIILAIYFLWQNLGPSVLAGVAFMVLLIPLNGAVAVKMRAFQVKQMKLKDSRIKLMSEILNGIKVLKLYAWEPSFLKQVEGIRQGELQLLRTAAYLHTTTTFTWMCSPFLVTLITLWVYVYVDPNNVLDAEKAFVSVSLFNILRLPLNMLPQLISNLTQASVSLKRIQQFLSQEELDPQSVERKTISPGYAITIHSGTFTWAQDLPPTLHSLDIQVPKGALVAVVGPVGCGKSSLVSALLGEMEKLEGKVHMKGSVAYVPQQAWIQNCTLQENVLFGKALNPKRYQQTLEACALLADLEMLPGGDQTEIGEKGINLSGGQRQRVSLARAVYSDADIFLLDDPLSAVDSHVAKHIFDHVIGPEGVLAGKTRVLVTHGISFLPQTDFIIVLADGQVSEMGPYPALLQRNGSFANFLCNYAPDEDQGHLEDSWTALEGAEDKEALLIEDTLSNHTDLTDNDPVTYVVQKQFMRQLSALSSDGEGQGRPVPRRHLGPSEKVQVTEAKADGALTQEEKAAIGTVELSVFWDYAKAVGLCTTLAICLLYVGQSAAAIGANVWLSAWTNDAMADSRQNNTSLRLGVYAALGILQGFLVMLAAMAMAAGGIQAARVLHQALLHNKIRSPQSFFDTTPSGRILNCFSKDIYVVDEVLAPVILMLLNSFFNAISTLVVIMASTPLFTVVILPLAVLYTLVQRFYAATSRQLKRLESVSRSPIYSHFSETVTGASVIRAYNRSRDFEIISDTKVDANQRSCYPYIISNRWLSIGVEFVGNCVVLFAALFAVIGRSSLNPGLVGLSVSYSLQVTFALNWMIRMMSDLESNIVAVERVKEYSKTETEAPWVVEGSRPPEGWPPRGEVEFRNYSVRYRPGLDLVLRDLSLHVHGGEKVGIVGRTGAGKSSMTLCLFRILEAAKGEIRIDGLNVADIGDPILFSGTLRMNLDPFGSYSEEDIWWALELSHLHTFVSSQPAGLDFQCSEGGENLSVGQRQLVCLARALLRKSRILVLDEATAAIDLETDNLIQATIRTQFDTCTVLTIAHRLNTIMDYTRVLVLDKGVVAEFDSPANLIAARGIFYGMARDAGLA
B2: ATP-binding cassette sub-family C member 2 (Homo sapiens) (protein)
chain: MLEKFCNSTFWNSSFLDSPEADLPLCFEQTVLVWIPLGYLWLLAPWQLLHVYKSRTKRSSTTKLYLAKQVFVGFLLILAAIELALVLTEDSGQATVPAVRYTNPSLYLGTWLLVLLIQYSRQWCVQKNSWFLSLFWILSILCGTFQFQTLIRTLLQGDNSNLAYSCLFFISYGFQILILIFSAFSENNESSNNPSSIASFLSSITYSWYDSIILKGYKRPLTLEDVWEVDEEMKTKTLVSKFETHMKRELQKARRALQRRQEKSSQQNSGARLPGLNKNQSQSQDALVLEDVEKKKKKSGTKKDVPKSWLMKALFKTFYMVLLKSFLLKLVNDIFTFVSPQLLKLLISFASDRDTYLWIGYLCAILLFTAALIQSFCLQCYFQLCFKLGVKVRTAIMASVYKKALTLSNLARKEYTVGETVNLMSVDAQKLMDVTNFMHMLWSSVLQIVLSIFFLWRELGPSVLAGVGVMVLVIPINAILSTKSKTIQVKNMKNKDKRLKIMNEILSGIKILKYFAWEPSFRDQVQNLRKKELKNLLAFSQLQCVVIFVFQLTPVLVSVVTFSVYVLVDSNNILDAQKAFTSITLFNILRFPLSMLPMMISSMLQASVSTERLEKYLGGDDLDTSAIRHDCNFDKAMQFSEASFTWEHDSEATVRDVNLDIMAGQLVAVIGPVGSGKSSLISAMLGEMENVHGHITIKGTTAYVPQQSWIQNGTIKDNILFGTEFNEKRYQQVLEACALLPDLEMLPGGDLAEIGEKGINLSGGQKQRISLARATYQNLDIYLLDDPLSAVDAHVGKHIFNKVLGPNGLLKGKTRLLVTHSMHFLPQVDEIVVLGNGTIVEKGSYSALLAKKGEFAKNLKTFLRHTGPEEEATVHDGSEEEDDDYGLISSVEEIPEDAASITMRRENSFRRTLSRSSRSNGRHLKSLRNSLKTRNVNSLKEDEELVKGQKLIKKEFIETGKVKFSIYLEYLQAIGLFSIFFIILAFVMNSVAFIGSNLWLSAWTSDSKIFNSTDYPASQRDMRVGVYGALGLAQGIFVFIAHFWSAFGFVHASNILHKQLLNNILRAPMRFFDTTPTGRIVNRFAGDISTVDDTLPQSLRSWITCFLGIISTLVMICMATPVFTIIVIPLGIIYVSVQMFYVSTSRQLRRLDSVTRSPIYSHFSETVSGLPVIRAFEHQQRFLKHNEVRIDTNQKCVFSWITSNRWLAIRLELVGNLTVFFSALMMVIYRDTLSGDTVGFVLSNALNITQTLNWLVRMTSEIETNIVAVERITEYTKVENEAPWVTDKRPPPDWPSKGKIQFNNYQVRYRPELDLVLRGITCDIGSMEKIGVVGRTGAGKSSLTNCLFRILEAAGGQIIIDGVDIASIGLHDLREKLTIIPQDPILFSGSLRMNLDPFNNYSDEEIWKALELAHLKSFVASLQLGLSHEVTEAGGNLSIGQRQLLCLGRALLRKSKILVLDEATAAVDLETDNLIQTTIQNEFAHCTVITIAHRLHTIMDSDKVMVLDNGKIIECGSPEELLQIPGPFYFMAKEAGIENVNSTKF

Tests used:
[1] = substrate: C#C[C@]1(O)CC[C@H]2[C@@H]3CCc4cc(O[C@@H]5O[C@H](C(=O)O)[C@@H](O)[C@H](O)[C@H]5O)ccc4[C@H]3CC[C@@]21C; test: TP_TRANSPORTER: uptake in membrane vesicle from MRP3-expressing Sf9 cells; type: functional, cell membranes
[2] = substrate: [H][C@@]12CC[C@@](O)(C#C)[C@@]1(C)CC[C@]1([H])c3ccc(O[C@@H]4O[C@H](C(=O)O)[C@@H](O)[C@H](O)[C@H]4O)cc3CC[C@@]21[H]; test: TP_TRANSPORTER: uptake in membrane vesicles from MRP2-expressing Sf9 cells; type: functional, cell membranes, Membrane vesicle

Row | Protein | Km [1] [µM] | Km [2] [µM]
1 | B1 | 9.2 | –
2 | B2 | – | 35.1
